# B1: Bacillus subtilis ScpA (natural protein, UniProt P35154 1-251, looked up)
# chain: MEEYQVKIDTFEGPLDLLLHLINRLEIDIYDIPVAKITEQYLLYVHTMRVLELDIASEYLVMAATLLSIKSRMLLPKQEEELFEDELLEEEDPREELIEKLIEYRKYKDAAKDLKEREEERQKSFTKPPSDLSEYAKEVKQSEQKLSVTVYDMIGAFQKVLKRKKINRPMETTITRQDIPIEARMNEIVHSLKSRGTRINFMDLFPYEQKEHLVVTFLAVLELMKNQLVLIEQEHNFSDIYITGSESIHGA
# Legend:
# [1] = molecular target: T1, ScSmc2H-CC110;ScSmc4H-CC110 (Saccharomyces cerevisiae?;Saccharomyces …, UniProt P38989;Q12267 396-792;555-951, |); experiment: fluorescence anisotropy
# T1 sequence 1: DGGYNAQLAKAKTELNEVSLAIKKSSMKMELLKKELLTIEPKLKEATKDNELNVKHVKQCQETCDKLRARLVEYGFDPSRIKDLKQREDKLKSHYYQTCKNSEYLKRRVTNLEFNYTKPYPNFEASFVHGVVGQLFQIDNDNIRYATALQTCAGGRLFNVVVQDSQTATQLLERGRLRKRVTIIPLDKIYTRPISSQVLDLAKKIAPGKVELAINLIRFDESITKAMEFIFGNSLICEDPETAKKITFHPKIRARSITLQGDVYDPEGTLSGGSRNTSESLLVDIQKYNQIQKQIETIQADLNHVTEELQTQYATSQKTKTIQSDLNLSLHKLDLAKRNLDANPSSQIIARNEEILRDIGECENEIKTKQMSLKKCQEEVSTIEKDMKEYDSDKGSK
# T1 sequence 2: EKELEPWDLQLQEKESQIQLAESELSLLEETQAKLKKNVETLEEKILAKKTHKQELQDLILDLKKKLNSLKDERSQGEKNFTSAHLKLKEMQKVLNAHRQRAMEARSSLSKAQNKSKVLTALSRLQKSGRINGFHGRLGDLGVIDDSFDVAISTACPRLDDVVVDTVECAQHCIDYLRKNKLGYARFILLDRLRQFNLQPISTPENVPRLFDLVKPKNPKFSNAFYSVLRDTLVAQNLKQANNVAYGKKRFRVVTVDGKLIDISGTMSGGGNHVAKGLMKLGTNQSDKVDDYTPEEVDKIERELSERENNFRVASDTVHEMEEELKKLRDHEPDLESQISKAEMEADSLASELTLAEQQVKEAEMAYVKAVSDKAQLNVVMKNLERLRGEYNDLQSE
# Bs Smc = molecular target: T2, Bs Smc (Bacillus subtilis, UniProt P51834 1-1186); experiment: fluorescence anisotropy
# T2 sequence: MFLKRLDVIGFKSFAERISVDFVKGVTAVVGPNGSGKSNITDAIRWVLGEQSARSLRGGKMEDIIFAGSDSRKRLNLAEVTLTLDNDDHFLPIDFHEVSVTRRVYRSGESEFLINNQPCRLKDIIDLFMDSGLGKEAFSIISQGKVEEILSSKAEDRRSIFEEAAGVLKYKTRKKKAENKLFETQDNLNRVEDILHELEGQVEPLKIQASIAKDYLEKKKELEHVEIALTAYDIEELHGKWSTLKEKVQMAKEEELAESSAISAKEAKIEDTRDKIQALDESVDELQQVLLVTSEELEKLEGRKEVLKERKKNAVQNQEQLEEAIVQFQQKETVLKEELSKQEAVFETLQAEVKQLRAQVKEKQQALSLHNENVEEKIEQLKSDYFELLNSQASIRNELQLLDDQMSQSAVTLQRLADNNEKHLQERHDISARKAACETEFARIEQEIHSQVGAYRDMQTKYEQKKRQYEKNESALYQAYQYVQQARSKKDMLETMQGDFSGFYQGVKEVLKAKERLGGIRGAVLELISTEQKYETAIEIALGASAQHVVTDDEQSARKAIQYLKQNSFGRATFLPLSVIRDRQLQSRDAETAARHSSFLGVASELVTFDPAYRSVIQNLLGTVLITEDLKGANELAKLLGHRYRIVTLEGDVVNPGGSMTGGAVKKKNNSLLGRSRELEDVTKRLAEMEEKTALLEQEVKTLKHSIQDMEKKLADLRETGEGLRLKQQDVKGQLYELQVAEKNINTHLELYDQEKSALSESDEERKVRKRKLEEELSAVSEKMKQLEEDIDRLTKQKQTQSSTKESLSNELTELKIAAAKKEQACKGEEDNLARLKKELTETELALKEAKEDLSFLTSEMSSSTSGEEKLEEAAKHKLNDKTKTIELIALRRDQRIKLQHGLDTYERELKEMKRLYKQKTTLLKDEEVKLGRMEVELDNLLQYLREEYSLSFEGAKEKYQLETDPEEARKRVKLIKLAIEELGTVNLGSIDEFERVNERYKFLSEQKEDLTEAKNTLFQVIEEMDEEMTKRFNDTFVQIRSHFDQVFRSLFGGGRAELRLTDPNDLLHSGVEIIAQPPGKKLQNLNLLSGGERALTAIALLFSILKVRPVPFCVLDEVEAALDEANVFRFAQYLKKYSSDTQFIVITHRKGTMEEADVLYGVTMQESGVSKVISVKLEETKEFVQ
# BsSmcH-CC8 = molecular target: T3, BsSmcH-CC8 (Bacillus subtilis, UniProt P51834 489-680); experiment: fluorescence anisotropy
# T3 sequence: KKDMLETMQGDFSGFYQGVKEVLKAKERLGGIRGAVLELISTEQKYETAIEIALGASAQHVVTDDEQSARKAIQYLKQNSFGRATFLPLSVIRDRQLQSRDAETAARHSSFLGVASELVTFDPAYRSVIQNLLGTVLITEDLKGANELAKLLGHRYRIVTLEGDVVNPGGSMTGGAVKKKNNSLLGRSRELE
# BsSmcH = molecular target: T4, BsSmcH (Bacillus subtilis, UniProt P51834 498-665); experiment: fluorescence anisotropy
# T4 sequence: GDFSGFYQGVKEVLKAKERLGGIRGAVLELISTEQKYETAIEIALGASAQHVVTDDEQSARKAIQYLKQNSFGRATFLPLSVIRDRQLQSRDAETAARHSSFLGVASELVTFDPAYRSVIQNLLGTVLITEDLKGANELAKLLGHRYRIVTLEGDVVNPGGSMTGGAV
# BsSmcH-CC100 = molecular target: T5, BsSmcH-CC100 (Bacillus subtilis, UniProt P51834 400-776); experiment: fluorescence anisotropy
# T5 sequence: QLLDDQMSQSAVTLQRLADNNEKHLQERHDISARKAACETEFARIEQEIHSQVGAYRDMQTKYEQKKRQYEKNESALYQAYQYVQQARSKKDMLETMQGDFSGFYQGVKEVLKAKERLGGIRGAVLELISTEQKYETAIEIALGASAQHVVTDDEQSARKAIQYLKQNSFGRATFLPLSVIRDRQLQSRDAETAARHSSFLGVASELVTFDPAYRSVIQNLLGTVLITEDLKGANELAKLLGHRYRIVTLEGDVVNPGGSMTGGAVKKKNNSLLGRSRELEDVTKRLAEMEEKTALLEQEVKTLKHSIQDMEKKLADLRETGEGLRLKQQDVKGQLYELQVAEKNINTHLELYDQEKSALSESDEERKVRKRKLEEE
# [2] = molecular target: T6, Bacillus subtilis Smc protein (Bacillus subtilis, UniProt P51834 1-1186); experiment: SEC-MALS
# T6 sequence (looked up): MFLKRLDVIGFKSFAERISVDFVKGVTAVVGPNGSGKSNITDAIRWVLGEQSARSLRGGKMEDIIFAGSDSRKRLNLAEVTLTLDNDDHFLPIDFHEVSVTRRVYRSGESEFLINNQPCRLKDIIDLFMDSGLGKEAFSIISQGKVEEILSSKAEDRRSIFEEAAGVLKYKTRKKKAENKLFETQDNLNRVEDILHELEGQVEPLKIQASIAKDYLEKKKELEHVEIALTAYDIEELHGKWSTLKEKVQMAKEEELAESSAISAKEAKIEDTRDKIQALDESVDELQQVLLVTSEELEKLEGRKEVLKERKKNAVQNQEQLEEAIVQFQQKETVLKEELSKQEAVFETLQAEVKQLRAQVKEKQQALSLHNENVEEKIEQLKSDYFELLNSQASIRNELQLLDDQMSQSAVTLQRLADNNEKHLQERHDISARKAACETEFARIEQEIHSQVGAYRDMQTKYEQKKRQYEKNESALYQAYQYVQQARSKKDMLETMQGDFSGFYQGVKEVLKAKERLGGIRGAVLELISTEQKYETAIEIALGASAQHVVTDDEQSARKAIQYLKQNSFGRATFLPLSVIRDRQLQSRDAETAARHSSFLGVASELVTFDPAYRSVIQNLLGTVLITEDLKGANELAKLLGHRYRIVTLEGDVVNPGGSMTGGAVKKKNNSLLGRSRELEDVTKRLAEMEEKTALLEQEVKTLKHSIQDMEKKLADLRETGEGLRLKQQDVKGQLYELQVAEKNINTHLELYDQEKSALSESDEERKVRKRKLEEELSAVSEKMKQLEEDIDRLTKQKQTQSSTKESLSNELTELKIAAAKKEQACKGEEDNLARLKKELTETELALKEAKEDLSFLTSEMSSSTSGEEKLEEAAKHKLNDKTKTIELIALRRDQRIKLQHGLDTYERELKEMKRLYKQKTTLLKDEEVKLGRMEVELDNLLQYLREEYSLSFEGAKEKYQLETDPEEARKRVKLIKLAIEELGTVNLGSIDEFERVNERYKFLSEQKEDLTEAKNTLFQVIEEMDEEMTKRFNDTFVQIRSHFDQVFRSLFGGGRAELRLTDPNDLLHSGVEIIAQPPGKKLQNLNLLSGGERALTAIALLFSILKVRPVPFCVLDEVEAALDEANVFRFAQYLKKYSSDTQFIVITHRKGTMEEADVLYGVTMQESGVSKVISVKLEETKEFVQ
# Bacillus subtilis ScpA = molecular target: B1; experiment: SEC-MALS
# SEC-MALS = molecular target: the molecule itself; experiment: SEC-MALS
binding result [2],binding result (Bacillus subtilis ScpA),Binder,Kd [1],Kd (Bs Smc),Kd (BsSmcH-CC8),binding result (BsSmcH),Kd (BsSmcH-CC100),binding result (SEC-MALS)
–,–,ds40 (dsDNA) DNA 1: TTAGTTGTTCGTAGTGCTCGTCTGGCTCTGGATTACCCGC DNA 2: GCGGGTAATCCAGAGCCAGACGAGCACTACGAACAACTAA,~50 nM,~100 nM,~200 nM,no binding,~100 nM,–
binds,–,B1,–,–,–,–,–,–
binds,binds,"Bacillus subtilis ScpB (natural protein, UniProt P35155 1-197, looked up) MGLDIVNWKAIVEALLYAAGDEGLTKKQLLTVLEIEEPELNTIMADVADEYRGDTRGIELIEYADTYMLSTKKDFAPYLKKLIEVPSKGLSQASLEVLAIVSYKQPITRAEIEEIRGVKSERILHSLVAKALLCEVGRADGPGRAILYGTTPTFLEQFGLKTLDELPPLPENAEEDVLQEEADLFFENFNQTFEDIK",–,–,–,–,–,binds

# Source: PMC4306524 (Molecular Cell, 2015)
